The values below come from patent US20080058263A1 (published 2008).

The chains are these.
T1: VEGFR-3-Fc (UniProt P35916 25-328)
T1 construct: domain: first three Ig domains; conditioned supernatant of 293T cells; also called VEGFR-3-Fc fusion protein; not shown: Fc fragment of the pIg vector
T1 sequence (looked up): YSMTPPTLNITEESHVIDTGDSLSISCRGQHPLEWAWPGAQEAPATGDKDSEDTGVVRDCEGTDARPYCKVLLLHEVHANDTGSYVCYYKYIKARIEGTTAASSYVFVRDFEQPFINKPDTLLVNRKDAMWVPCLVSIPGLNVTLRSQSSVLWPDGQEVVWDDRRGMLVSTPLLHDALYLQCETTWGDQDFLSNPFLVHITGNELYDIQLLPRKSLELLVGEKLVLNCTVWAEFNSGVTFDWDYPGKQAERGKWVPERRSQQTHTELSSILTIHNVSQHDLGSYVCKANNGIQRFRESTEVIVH

B1: 11-13 (ligand)
chain: GQNHHEVVKFMDVYQRSYCHPIETLVDIFQEYPDEIEYIFKPSCVPLMRCGGCCNDEGLECVPTEESNITMQIMRITVPLSQGPKPVTISFANHTSCRCMSKLD
B2: 41-15 (ligand)
chain: AHYNTEILKFMDVYQRSYCHPREVCIDVGKEYPDEIEYIFKPSCVPLMRCGGCCNSEGLQCVPTEESNITMQIMRITVPLSQGPKPVTISFANHTSCRCMSKLD
B3: 11-15 (ligand)
chain: B1 chain with D56S, E60Q
B4: 63-13 (ligand)
chain: GQNHHEVVKFMDVYQRSYCHPREVCIDVGKEYPDEIEYIFKPPCVSVYRCGGCCNDEGLECVPTEESNITMQIMRITVPLSQGPKPVTISFANHTSCRCMSKLD
B5: 43-15 (ligand)
chain: B2 chain with S43P, P46S, L47V, M48Y
B6: 64-13 (ligand)
chain: GQNHHEVVKFMDVYQRSYCHPREVCIDVGKEFGVATNTFFKPSCVPLMRCGGCCNDEGLECVPTEESNITMQIMRITVPLSQGPKPVTISFANHTSCRCMSKLD
B7: 62-15 (ligand)
chain: B6 chain with S43P, P46S, L47V, M48Y, D56S, E60Q
B8: 63-11 (ligand)
chain: B4 chain with D56S, E60Q, A92L, N93Q, T95N, S96K, R98E, M100R, S101P, L103K
B9: 41-13 (ligand)
chain: B2 chain with S56D, Q60E
B10: 64-15 (ligand)
chain: B6 chain with D56S, E60Q
B11: 63-15 (ligand)
chain: B4 chain with D56S, E60Q
B12: 61-9 (ligand)
chain: GQNHHEVVKFMDVYQRSYCHPREVCIDVGKEYPDEIEYIFKPSCVPLMRCGGCCNDEGLECVPTEESNITMQIMRITVPLSQGPKPVTISFLQHNKCECRPKKD
B13: 13-15 (ligand)
chain: B1 chain with S43P, P46S, L47V, M48Y, D56S, E60Q
B14: 61-11 (ligand)
chain: B12 chain with D56S, E60Q
B15: 12-9 (ligand)
chain: GQNHHEVVKFMDVYQRSYCHPIETLVDIFQEFGVATNTFFKPPCVSVYRCGGCCNDEGLECVPTEESNITMQIMRITVPLSQGPKPVTISFLQHNKCECRPKKDLVFEQKLISEEDLNSAVDHHHHHH
B16: 12-11 (ligand)
chain: B15 chain with D56S, E60Q
notes: also called super-VEGF
B17: 12-13 (ligand)
chain: B15 chain with L92A, Q93N, N95T, K96S, E98R, R100M, P101S, K103L, D104N
notes: clone acquired a point mutation, Asp to Asn at the last C-terminal amino acid of the hybrid
B18: 12-15 (ligand)
chain: B15 chain with D56S, E60Q, L92A, Q93N, N95T, K96S, E98R, R100M, P101S, K103L
B19: 12-3 (ligand)
chain: GQNHHEVVKFMDVYQRSYCHPIETLVDIFQEFGVATNTFFKPPCVSVYRCGGCCNSEGLQCVPTEESNITMQIMRIKPHQGQHIGEMSFLQHNKCECRPKKDLVFEQKLISEEDLNSAVDHHHHHH
B20: 12-7 (ligand)
chain: B19 chain with L90A, Q91N, N93T, K94S, E96R, R98M, P99S, K101L
notes: also called super-VEGF
B21: 23-6 (ligand)
chain: AHYNTEILKSIDNEWRKTQCMPREVCIDVGKEYPDEIEYIFKPPCVSVYRCGGCCNDEGLECMNTSTSYLSKTLFEIKPHQGQHIGEMSFANHTSCRCMSKLD
B22: 21-6 (ligand)
chain: B21 chain with P44S, S47P, V48L, Y49M
B23: 23-2 (ligand)
chain: B21 chain with A91L, N92Q, T94N, S95K, R97E, M99R, S100P, L102K
B24: 22-8 (ligand)
chain: B21 chain with Y33F, P34G, D35V, E36A, I37T, E38N, Y39T, I40F, D57S, E61Q
B25: 21-8 (ligand)
chain: B21 chain with P44S, S47P, V48L, Y49M, D57S, E61Q
B26: 22-6 (ligand)
chain: B21 chain with Y33F, P34G, D35V, E36A, I37T, E38N, Y39T, I40F
B27: 21-2 (ligand)
chain: AHYNTEILKSIDNEWRKTQCMPREVCIDVGKEYPDEIEYIFKPSCVPLMRCGGCCNDEGLECMNTSTSYLSKTLFEIKPHQGQHIGEMSFLQHNKCECRPKKD

Where a chain is given by its changes, count along the chain named.

One assay deals with T1, VEGFR-3-Fc. In words: receptor-Fc IP. In short, it runs like this:
(§1)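 fusion protein at 400 ng/ml in an IP mix (PBS, 1.5% BSA, 0.06% Tween 20, 3 μg/ml heparin) was combined with sample supernatant at a 1:2 ratio. Bound ligand captured by immunoprecipitation with pentahistidine antibody.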
B1: the binding result was “no binding”.

As for B2, the binding result is on record as “no binding”.

Take B3: the binding result is listed as “no binding”.

Regarding B4, the binding result is “no binding”.

Regarding B5, the binding result was “no binding”.

As to B6, the binding result is recorded as “no binding”.

Regarding B7, the binding result is listed as “no binding”.

In the case of B8, the binding result is “no binding”.

For B9, the binding result is recorded as “no binding”.

As to B10, the binding result is on record as “no binding”.

On to B11, for which the binding result is “no binding”.

Regarding B12, the binding result was “no binding”.

Take B13: the binding result is “no binding”.

As to B14, the binding result is “no binding”.

On to B15, for which the binding result was “binds”.

For B16, the binding result was “binds”.

As to B17, the binding result is reported as “binds”.

On to B18, for which the binding result is “binds”.

As to B19, the binding result is on record as “no binding”.

For B20, the binding result is listed as “binds”.

Take B21: the binding result is given as “no binding”.

Consider B22, for which the binding result is given as “no binding”.

As for B23, the binding result is recorded as “no binding”.

Take B24: the binding result is reported as “binds”.

Turning to B25, the binding result is on record as “no binding”.

Turning to B26, the binding result was “binds”.

On to B27, for which the binding result is recorded as “no binding”.

In a further assay the target is T2, VEGFR-2-Fc (UniProt P35968 20-322).
T2 construct: domain: first 3 Ig domains; conditioned supernatant of 293T cells; also called VEGFR-2-Fc fusion protein; not shown: Fc fragment of the pIg vector
T2 sequence (P35968 20-322): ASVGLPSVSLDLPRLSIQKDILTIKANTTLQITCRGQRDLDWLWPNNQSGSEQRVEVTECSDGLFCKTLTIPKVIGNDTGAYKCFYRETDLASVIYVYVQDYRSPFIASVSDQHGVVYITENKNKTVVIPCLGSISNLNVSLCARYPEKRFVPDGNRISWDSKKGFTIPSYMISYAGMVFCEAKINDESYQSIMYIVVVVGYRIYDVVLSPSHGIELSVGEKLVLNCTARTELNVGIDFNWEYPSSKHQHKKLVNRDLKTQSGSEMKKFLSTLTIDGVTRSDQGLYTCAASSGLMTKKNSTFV
In words: receptor-Fc IP. The method, boiled down: as §1
As to B1, the binding result is “no binding”.

Take B2: the binding result was “no binding”.

As for B3, the binding result is given as “binds”.

Turning to B4, the binding result is “no binding”.

As to B5, the binding result is reported as “no binding”.

For B6, the binding result is “no binding”.

For B7, the binding result is “no binding”.

As to B8, the binding result is on record as “no binding”.

Take B9: the binding result is listed as “no binding”.

Take B10: the binding result was “no binding”.

For the molecule B11, the binding result is “no binding”.

B12: the binding result is “no binding”.

B13: the binding result was “no binding”.

B14: the binding result was “no binding”.

For the molecule B15, the binding result was “no binding”.

Regarding B16, the binding result is “binds”.

B17: the binding result is reported as “no binding”.

As for B18, the binding result is given as “binds”.

Regarding B19, the binding result is listed as “binds”.

B20: the binding result is recorded as “binds”.

Take B21: the binding result is on record as “no binding”.

Take B22: the binding result is on record as “no binding”.

Regarding B23, the binding result was “no binding”.

As to B24, the binding result is “binds”.

B25: the binding result is reported as “no binding”.

Regarding B26, the binding result is given as “binds”.

As for B27, the binding result was “no binding”.

For the next assay, the target named is T3, VEGFR-1-Fc (UniProt P17948 27-338).
T3 construct: domain: first three Ig domains; expressed in Drosophila S2 cells, purified on Protein A sepharose; also called VEGFR-1-Fc fusion protein; not shown: Fc fragment from the Signal-pIgPlus vector
T3 sequence (P17948 27-338): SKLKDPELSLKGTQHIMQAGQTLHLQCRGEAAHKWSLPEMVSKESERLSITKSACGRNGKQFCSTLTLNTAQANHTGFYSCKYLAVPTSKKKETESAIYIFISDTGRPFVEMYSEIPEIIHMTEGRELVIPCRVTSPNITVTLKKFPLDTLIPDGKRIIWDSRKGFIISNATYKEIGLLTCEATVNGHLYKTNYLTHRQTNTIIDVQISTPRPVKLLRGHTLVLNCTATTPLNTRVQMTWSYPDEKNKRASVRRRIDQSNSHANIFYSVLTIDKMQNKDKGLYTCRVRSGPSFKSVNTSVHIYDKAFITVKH
Kind of assay: receptor-Fc IP. The method, boiled down:
as §1
With B1, the binding result is recorded as “binds”.

Consider B2, for which the binding result was “no binding”.

Turning to B3, the binding result was “binds”.

With B4, the binding result is listed as “no binding”.

As to B5, the binding result is “no binding”.

As for B6, the binding result is listed as “no binding”.

For B7, the binding result is on record as “no binding”.

On to B8, for which the binding result is recorded as “no binding”.

Regarding B9, the binding result is on record as “no binding”.

As to B10, the binding result is “no binding”.

With B11, the binding result is given as “no binding”.

With B12, the binding result is on record as “no binding”.

B13: the binding result is reported as “binds”.

On to B14, for which the binding result is recorded as “no binding”.

As to B15, the binding result is listed as “binds”.

On to B16, for which the binding result was “binds”.

For B17, the binding result was “binds”.

On to B18, for which the binding result was “no binding”.

Consider B19, for which the binding result is recorded as “binds”.

For the molecule B20, the binding result was “binds”.

For B21, the binding result is “no binding”.

Regarding B22, the binding result is listed as “no binding”.

Take B23: the binding result is “no binding”.

Regarding B24, the binding result is reported as “no binding”.

As to B25, the binding result is on record as “no binding”.

As for B26, the binding result was “no binding”.

As to B27, the binding result is reported as “no binding”.
